# Values of other authors as cited in paper PMC10423694.
# pKd: −log10 of the molar value.
# Tests used:
# ubiquitin (Homo sapiens) = ubiquitin (Homo sapiens) (UniProt P0CG47)
# K63-diUb (Homo sapiens) = K63-diUb (Homo sapiens) (UniProt P0CG47); test: SPR
# K48-diUb (Homo sapiens) = K48-diUb (Homo sapiens) (UniProt P0CG47); test: SPR
# [1] = molecular target: ubiquitin monomer (Homo sapiens) (UniProt P0CG47); test: SPR
# M1-diUb (Homo sapiens) = M1-diUb (Homo sapiens) (UniProt P0CG47); test: SPR
# NEMO, sequence (Q9Y6K9 whole entry): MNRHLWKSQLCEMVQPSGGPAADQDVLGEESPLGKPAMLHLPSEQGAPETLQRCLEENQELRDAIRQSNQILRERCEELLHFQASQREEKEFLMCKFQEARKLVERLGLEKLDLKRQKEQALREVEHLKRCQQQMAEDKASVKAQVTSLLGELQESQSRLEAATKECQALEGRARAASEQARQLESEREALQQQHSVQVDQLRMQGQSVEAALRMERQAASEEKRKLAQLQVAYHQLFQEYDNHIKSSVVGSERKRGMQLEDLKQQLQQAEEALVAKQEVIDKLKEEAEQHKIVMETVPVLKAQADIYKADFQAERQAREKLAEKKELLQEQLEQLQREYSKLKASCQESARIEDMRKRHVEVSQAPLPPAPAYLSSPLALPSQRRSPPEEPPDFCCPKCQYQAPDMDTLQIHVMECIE
# UBQLN2 UBA, sequence (Q9UHD9 578-624): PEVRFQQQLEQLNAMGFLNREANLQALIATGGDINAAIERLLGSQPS
pKd (ubiquitin (Homo sapiens)),pKd (K63-diUb (Homo sapiens)),pKd (K48-diUb (Homo sapiens)),pKd [1],pKd (M1-diUb (Homo sapiens)),Substance
5.10,–,–,–,–,UBQLN2 UBA (from UniProt Q9UHD9)
–,3.85,3.77,3.82,5.35,NEMO (from UniProt Q9Y6K9)
